Laboratory results reported in paper PMC8776769, “Structure and mechanism of the RNA dependent RNase Cas13a from Rhodobacter capsulatus”.

Target: T1, RcCas13a (Rhodobacter capsulatus, UniProt D5AUW0 1-1285)
T1 sequence: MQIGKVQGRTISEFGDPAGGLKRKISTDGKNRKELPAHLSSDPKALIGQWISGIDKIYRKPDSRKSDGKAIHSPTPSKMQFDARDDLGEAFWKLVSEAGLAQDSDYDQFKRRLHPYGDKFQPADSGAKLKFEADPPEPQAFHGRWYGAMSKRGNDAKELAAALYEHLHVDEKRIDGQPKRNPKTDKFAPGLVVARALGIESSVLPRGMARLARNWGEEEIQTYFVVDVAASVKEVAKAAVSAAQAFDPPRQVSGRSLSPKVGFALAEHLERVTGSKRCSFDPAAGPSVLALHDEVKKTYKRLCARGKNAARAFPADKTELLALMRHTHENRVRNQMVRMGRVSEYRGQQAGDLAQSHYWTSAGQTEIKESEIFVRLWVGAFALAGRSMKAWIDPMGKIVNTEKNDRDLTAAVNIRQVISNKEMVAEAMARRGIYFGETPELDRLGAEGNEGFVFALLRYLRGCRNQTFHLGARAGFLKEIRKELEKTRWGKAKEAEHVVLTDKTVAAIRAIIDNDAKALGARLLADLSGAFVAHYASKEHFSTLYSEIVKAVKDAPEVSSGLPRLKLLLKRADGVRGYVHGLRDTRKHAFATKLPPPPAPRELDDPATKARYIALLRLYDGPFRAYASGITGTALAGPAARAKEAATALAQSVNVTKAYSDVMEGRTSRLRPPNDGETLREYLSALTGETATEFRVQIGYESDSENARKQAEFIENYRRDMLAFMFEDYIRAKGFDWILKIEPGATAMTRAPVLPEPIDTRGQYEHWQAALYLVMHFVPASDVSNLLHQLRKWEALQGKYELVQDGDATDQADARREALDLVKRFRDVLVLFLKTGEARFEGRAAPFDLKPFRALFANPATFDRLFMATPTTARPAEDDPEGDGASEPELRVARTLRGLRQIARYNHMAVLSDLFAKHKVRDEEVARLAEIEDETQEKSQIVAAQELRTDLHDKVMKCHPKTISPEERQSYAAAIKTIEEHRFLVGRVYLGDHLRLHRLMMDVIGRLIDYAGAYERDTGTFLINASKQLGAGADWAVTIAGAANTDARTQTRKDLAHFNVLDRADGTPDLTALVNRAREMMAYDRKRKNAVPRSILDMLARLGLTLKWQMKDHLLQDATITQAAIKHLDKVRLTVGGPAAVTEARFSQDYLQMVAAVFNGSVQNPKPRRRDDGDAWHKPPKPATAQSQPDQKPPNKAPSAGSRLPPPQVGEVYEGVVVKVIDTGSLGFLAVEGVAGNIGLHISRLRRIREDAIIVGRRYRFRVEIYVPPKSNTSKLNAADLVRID
Assay: X-ray crystal structure (2.1 A); binary complex, no target RNA; Complex co-purified by Ni affinity and SEC: 50 mM Hepes pH 8.0, 500 mM NaCl, 10% glycerol, 1 mM DTT, 4-8 C; crystallization conditions not in material
Conditions: protein: recombinant; tags: C-terminal His6, not removed for the crRNA complex; hairpin

B1: crRNA for crystallization (structured_RNA)
RNA: GCCUCACAUCACCGCCAAGACGACGGCGGACUGAACCUUCAUUACCUCUGUUUG
Does B1 bind?
Result: binds
